Legend:
Experiment in all cases: FP
PSD-95 PDZ3 = molecular target: T1, PSD-95 PDZ3 (UniProt P78352)
T1 chain: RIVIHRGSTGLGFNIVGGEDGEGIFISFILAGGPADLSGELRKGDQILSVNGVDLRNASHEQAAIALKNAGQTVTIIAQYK

PSD-95 PDZ2 = molecular target: T2, PSD-95 PDZ2 (UniProt P78352)
T2 chain: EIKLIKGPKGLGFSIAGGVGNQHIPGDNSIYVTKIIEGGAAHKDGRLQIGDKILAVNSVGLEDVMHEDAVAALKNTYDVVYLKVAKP

SHANK3 PDZ = molecular target: T3, SHANK3 PDZ (UniProt Q9BYB0)
T3 chain: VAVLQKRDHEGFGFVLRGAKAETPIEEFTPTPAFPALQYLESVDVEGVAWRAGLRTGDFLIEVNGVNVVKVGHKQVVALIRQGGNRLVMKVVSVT

SHANK2 PDZ = molecular target: T4, SHANK2 PDZ (UniProt Q9UPX8)
T4 chain: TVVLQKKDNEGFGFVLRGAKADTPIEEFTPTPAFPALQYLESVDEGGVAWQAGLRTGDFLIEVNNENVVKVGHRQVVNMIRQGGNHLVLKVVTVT

SHANK1 PDZ = molecular target: T5, SHANK1 PDZ (UniProt Q9Y566)
T5 chain: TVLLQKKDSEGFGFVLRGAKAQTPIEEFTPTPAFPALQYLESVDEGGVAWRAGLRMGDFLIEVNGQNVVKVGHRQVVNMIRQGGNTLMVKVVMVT

Kd (PSD-95 PDZ3): 40.7 µM | Kd (PSD-95 PDZ2): 31.3 µM | Kd (SHANK3 PDZ): 8.6 µM | Kd (SHANK2 PDZ): 5.2 µM | Kd (SHANK1 PDZ): 7.6 µM
Binder: YNRTNRSRMPNLNDLKETAL [CDKL5-1 941-960]

— paper PMC13787487 (2026)
